In publication PMC7888707:

Key:
[1] = target: PECAM-1–GFP (wild type, stably expressed in HL-60 cells) (human) (UniProt P16284); assay: FRET or BRET; FLIM measurement of FRET between the GFP and RFP tags in HL-60 cells plated on poly-L-lysine-coated coverslips at 37°C for 5 min, fixed in 4% PFA (resting, not in TEM)
[2] = target: PECAM-1–GFP (wild type, stably expressed in HL-60 cells) (human) (UniProt P16284); assay: FRET or BRET; FLIM measurement of FRET between the GFP and RFP tags in dHL-60 cells perfused (1.5 dynes/cm2) over TNF-activated HUVEC monolayers, fixed in 4% PFA in mid-TEM; read at breached junctions
[3] = target: PECAM-1–GFP (wild type, stably expressed in HL-60 cells) (human) (UniProt P16284); assay: FRET or BRET; FLIM measurement of FRET between the GFP and RFP tags in dHL-60 cells perfused (1.5 dynes/cm2) over IL-1β-activated HUVEC monolayers, fixed in 4% PFA in mid-TEM; read at breached junctions

FRET efficiency [1]: 0.982% | FRET efficiency [2]: 5.39% | FRET efficiency [3]: 1.21%
Substance: L-selectin–RFP (wild type, stably expressed in HL-60 cells) (from UniProt P14151 39-372) (natural protein)
